{"source": "patent EP4711453A1", "about": "“PHENYLALANINE LYASE MUTANT, AND CONJUGATE THEREOF OR PHARMACEUTICALLY ACCEPTABLE SALT THEREOF” (Peg-Bio Biopharm Co., Ltd. (Chongqing), priority 2023, dated 2024)", "key": {"[1]": {"tested_on": "anti-PAL protein antibodies", "assay": "Anti-PAL protein antibody in rat serum after multiple administrations (bridging ELISA)", "assay_type": "in vivo", "conditions": "SD rats", "procedure": "To evaluate PEGylated conjugates of phenylalanine lyase or its mutants with different average degrees of modification, the inventors divided SD rats into four groups (n=6 per group). The animals were subcutaneously injected with PL54-1 and PL54-5 (average degrees of modification: 10.54 and 13.60, respectively) and PL5-1 and PL5-5 (average degrees of modification: 8.2 and 10.53, respectively) from Table 3 of Example 2 at a dose of 2 mg/kg once a week for four doses. Blood samples were collected on D1 (Day 1), D3 (Day 3), and D7 (Day 7) after the first dose, as well as on D3 and D7 following each subsequent dose. The concentrations of PL54-1, PL54-5, PL5-1, and PL5-5 in rat serum were determined by sandwich ELISA to assess plasma drug concentration maintenance after multiple administrations. Anti-PEG-IgM/IgG antibody titers in rat serum from each group were measured using indirect ELISA (coating with PEG-BSA, adding positive rat anti-PEG Abs/test serum samples, followed by HRP-conjugated anti-rat IgM/IgG detection), while bridging ELISA (coating with PAL protein, adding positive sheep anti-PAL Abs/acidified serum samples, followed by biotin-labeled PAL detection) was also performed. The plasma drug concentration results are shown in FIG. 4, and the antibody detection results after administration were shown in FIG. 4 and FIG. 5."}, "[2]": {"assay": "Specific enzyme activity of phenylalanine lyase (trans-cinnamic acid formation, absorbance at 290 nm)", "assay_type": "biochemical", "procedure": "Phenylalanine lyase specifically catalyzes the conversion of phenylalanine into trans-cinnamic acid with the release of ammonia. […] Enzyme activity is defined as the amount of enzyme required to produce 1 µmol of trans-cinnamic acid per minute in buffer (100 mmol/L Tris-HCl, pH 8.5) at room temperature (25°C) as one unit of enzyme activity.\nThe specific enzyme activity of phenylalanine lyase and its mutants (i.e., PAL, PAL2, PAL3, and PAL4 proteins) prepared in Example 1 was evaluated by taking an appropriate amount of test sample and diluting it to 0.4 mg/ml using assay buffer (100 mmol/L Tris-HCl, pH 8.0). 2.9 ml of substrate solution (100 mmol/L Tris-HCl, 45 mmol/L Phe, pH 8.0) was placed in a cuvette, followed by addition of 0.1 ml of diluted test solution and immediate mixing. The changes in absorbance per minute were recorded at a wavelength of 290 nm, and the specific enzyme activity was calculated according to the formula. Enzyme activity (U/mg) = (AS−AO)VN × 10^6 /εLTV1 [formula]\nWhere AS and AO represent the absorbance of trans-cinnamic acid at the […] of the reaction, respectively; V is the total volume (L) of the reaction system; L is the optical path length of the cuvette (cm); ε is the molar extinction coefficient of trans-cinnamic acid (10238.1 L/(mol·cm)); T is the reaction time (min); N is the dilution factor of the test sample; V1 is the volume of test sample (ml).\nThe enzyme activity retention rate was calculated by comparing the specific enzyme activity of phenylalanine lyase mutants with the specific enzyme activity of the phenylalanine lyase. Table 2: Specific enzyme activity of phenylalanine lyase mutants\nThe specific enzyme activity of the polyethylene glycol conjugates of phenylalanine lyase and its mutants prepared in Step 1 of Example 2 was determined according to the method described in Step 1 of this example. The enzyme activity retention rate was calculated by comparing the specific enzyme activity of each conjugate with its specific enzyme activity prior to PEG modification (e.g., the enzyme activity retention rate of PL5-1 = specific enzyme activity of PL5-1 / specific enzyme activity of PAL protein). Table 3: Specific enzyme activity of PEGylated phenylalanine lyase mutants"}, "serum phenylalanine": {"tested_on": "serum phenylalanine", "assay": "Comparative pharmacodynamics with Pegvaliase: serum phenylalanine after multiple administrations", "assay_type": "in vivo", "conditions": "Pah^enu mice, 3 mg/kg s.c. once weekly; second to fourth administrations", "description": "To evaluate the differences in pharmacodynamics and immunogenicity between the polyethylene glycol conjugate PL54-5 of directionally saturated modified phenylalanine lyase mutant and Pegvaliase (marketed drug), eight Pah^enu mice were allocated into two groups of four mice each, and administered with either PL54-5 (average degree of modification: 13.60, specific enzyme activity: 1.27 U/mg) from Table 3 of Example 2 or Pegvaliase Injection (manufactured by BioMarin, purchased lot number L161239, specification: 20 mg/mL/vial) at an administration dose of 3.0 mg/kg, once weekly via subcutaneous injection for four consecutive weeks. Blood samples were collected from each group of mice before administration and at 3 days and 7 days after each administration, respectively. Changes in serum phenylalanine concentration were measured (Reference: Judy Peat et al., Determination of Phenylalanine and Tyrosine by High Performance Liquid Chromatography-Tandem Mass Spectrometry) and anti-PEG-IgM/IgG antibody titers of each animal were determined at the end of the study (see Example 5 for details), to assess differences in pharmacodynamics and immunogenicity, as shown in FIG. 11 and FIG. 12."}, "anti-PAL-IgG": {"tested_on": "anti-PAL-IgG", "assay": "Immunogenicity of conjugates with different PEG molecular weights in rats: anti-PAL-IgG (ELISA)", "assay_type": "in vivo", "conditions": "for anti-PAL-IgG, x (average OD value of antibody detection by ELISA) / anti-PAL-IgG, Positive rate: 0.75 mg/kg s.c. once weekly", "procedure": "Polyethylene glycol conjugates of phenylalanine lyase or its mutant with different structures and modifier molecular weights, namely PL20, PL24, and PL54, were prepared according to the method described in Example 2. The phenylalanine lyase in PL20 has the amino acid sequence as set forth in SEQ ID NO: 1, and the polyethylene glycol has a molecular weight of 20K. The phenylalanine lyase in PL24 has the amino acid sequence as set forth in SEQ ID NO: 6, and the polyethylene glycol has a molecular weight of 2K. The phenylalanine lyase in PL54 has the amino acid sequence as set forth in SEQ ID NO: 6, and the polyethylene glycol has a molecular weight of 5K.\nTo evaluate the immunogenicity of PL20, PL24, and PL54 in animals, normal rats were selected and divided into 3 groups, with 6 rats per group (3 males and 3 females). Subcutaneous administration was performed at a dose of 0.75 mg/kg with PL54 (average degree of modification 13.6, 1.27 U/mg), PL24 (average degree of modification 13.3, 0.96 U/mg), and PL20 (average degree of modification 7.6, 1.14 U/mg) for the three groups, respectively. Administration was repeated 7 times, once weekly. Blood samples were collected 7 days after each administration. Serum anti-PEG-IgG and anti-PAL4 protein antibodies were detected by ELISA (refer to Example 5 for details). In the table, \"1-7\" indicated 7 days after the first administration, and \"7-7\" indicated 7 days after the seventh administration. x represented the average OD value of antibody detection by ELISA, and the positive rate represented the ratio of the number of antibody-positive animals to the total number of animals in the group. Table 6: Antibody titers in rats after multiple administrations of polyethylene glycol conjugates with different molecular weights"}}, "data": [{"molecule": "PL54-5: polyethylene glycol conjugate of PAL4 (SEQ ID NO: 6) with PEG-SPA-5K, molar ratio 1:16, average degree of modification 13.60 (conjugate, PEG-SPA-5K conjugate, ~13.6 PEG per molecule) MKTLSQAQSKTSSQQFSFTGNSSANVIIGNQKLTINDVARVARNGTLVSLTNNTDILQGIQASCDYINNAVKSGEPIYGVTSGFGGMANVAISREQASELQTNLVWFLKTGAGNKLPLADVRAAMLLRANSHMRGASGIRLELIKRMEIFLNAGVTPYVYEFGSIGASGDLVPLSYITGSLIGLDPSFKVDFNGKEMDAPTALRQLNLSPLTLLPKEGLAMMNGTSVMTGIAANCVYDTKILTAIAMGVHALDIQALNGTNQSFHPFIHNSKPHPGQLWAADQMISLLANSQLVRDELDGKHDYRDHELIQDRYSLRCLPQYLGPIVDGISQIAKQIEIEINSVTDNPLIDVDNQASYHGGNFLGQYVGMGMDHLRYYIGLLAKHLDVQIALLASPEFSNGLPPSLLGNRERKVNMGLKGLQICGNSIMPLLTFYGNSIADRFPTHAEQFNQNINSQGYTSATLARKSVDIFQNYVAIALMFGVQAVDLRTYKKTGHYDARASLSPATERLYSAVRHVVGQKPTSDRPYIWNDNEQGLDEHIAKISADIAAGGVIVQAVQDILPSLH", "values": [{"measurement": "anti-PAL protein antibodies, positive rats", "setting": "[1]; serum dilution 1:10, 7 days after the fourth dose", "result": "1/6"}, {"measurement": "anti-PAL protein antibodies", "setting": "[1]; serum dilution 1:10, after the first dose", "result": "very weak positivity"}, {"measurement": "Enzyme activity retention rate", "setting": "[2]; conjugate compared with its protein prior to PEG modification", "result": 83, "unit": "%"}, {"measurement": "Specific enzyme activity", "setting": "[2]; polyethylene glycol conjugates, method as for the proteins", "result": 1.27, "unit": "U/mg"}, {"measurement": "phenylalanine-lowering effect", "setting": "serum phenylalanine", "result": "consistently reduced phenylalanine levels on Day 3"}, {"measurement": "anti-PAL-IgG, x (average OD value of antibody detection by ELISA)", "setting": "anti-PAL-IgG; 1-7 (7 days after the first administration)", "result": "x=0.107"}, {"measurement": "anti-PAL-IgG, Positive rate", "setting": "anti-PAL-IgG; 1-7, antibody-positive animals / animals in the group", "result": "Positive rate: 2/6"}, {"measurement": "anti-PAL-IgG, x (average OD value of antibody detection by ELISA)", "setting": "anti-PAL-IgG; 7-7 (7 days after the seventh administration)", "result": "x=0.089"}, {"measurement": "anti-PAL-IgG, Positive rate", "setting": "anti-PAL-IgG; 7-7, antibody-positive animals / animals in the group", "result": "Positive rate: 0/6"}, {"measurement": "anti-PAL4 protein antibody", "setting": "anti-PAL-IgG; 7 days after seven doses", "result": "No anti-PAL4 protein antibody was detected"}]}]}
